Test results taken from patent US20190321483A1 (Novartis, published 2019).
Changes are numbered by the printed parent chain.

T1: Mouse cKIT ECD, C-terminal 6x His (Sino Biological Inc, Catalog number 50530-M08H) (mouse, UniProt P05532 25-527)
T1 construct: extracellular domain
T1 sequence: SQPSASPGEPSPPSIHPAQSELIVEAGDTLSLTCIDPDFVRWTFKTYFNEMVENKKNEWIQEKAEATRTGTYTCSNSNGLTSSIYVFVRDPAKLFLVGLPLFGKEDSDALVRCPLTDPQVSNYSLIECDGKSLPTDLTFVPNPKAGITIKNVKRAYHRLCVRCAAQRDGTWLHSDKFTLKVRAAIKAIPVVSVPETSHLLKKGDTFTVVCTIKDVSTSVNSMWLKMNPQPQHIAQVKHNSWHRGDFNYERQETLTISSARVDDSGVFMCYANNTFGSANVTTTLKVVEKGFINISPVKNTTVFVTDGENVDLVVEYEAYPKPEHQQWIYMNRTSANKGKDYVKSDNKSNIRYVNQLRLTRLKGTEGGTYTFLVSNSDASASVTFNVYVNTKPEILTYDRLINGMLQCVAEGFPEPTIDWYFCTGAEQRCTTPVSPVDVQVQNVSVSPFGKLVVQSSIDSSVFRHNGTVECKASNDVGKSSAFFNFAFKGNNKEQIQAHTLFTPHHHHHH

T2: Rat cKIT D1-5, C-terminal mFc (rat)
T2 construct: also called rat cKIT-mFc
T2 chain: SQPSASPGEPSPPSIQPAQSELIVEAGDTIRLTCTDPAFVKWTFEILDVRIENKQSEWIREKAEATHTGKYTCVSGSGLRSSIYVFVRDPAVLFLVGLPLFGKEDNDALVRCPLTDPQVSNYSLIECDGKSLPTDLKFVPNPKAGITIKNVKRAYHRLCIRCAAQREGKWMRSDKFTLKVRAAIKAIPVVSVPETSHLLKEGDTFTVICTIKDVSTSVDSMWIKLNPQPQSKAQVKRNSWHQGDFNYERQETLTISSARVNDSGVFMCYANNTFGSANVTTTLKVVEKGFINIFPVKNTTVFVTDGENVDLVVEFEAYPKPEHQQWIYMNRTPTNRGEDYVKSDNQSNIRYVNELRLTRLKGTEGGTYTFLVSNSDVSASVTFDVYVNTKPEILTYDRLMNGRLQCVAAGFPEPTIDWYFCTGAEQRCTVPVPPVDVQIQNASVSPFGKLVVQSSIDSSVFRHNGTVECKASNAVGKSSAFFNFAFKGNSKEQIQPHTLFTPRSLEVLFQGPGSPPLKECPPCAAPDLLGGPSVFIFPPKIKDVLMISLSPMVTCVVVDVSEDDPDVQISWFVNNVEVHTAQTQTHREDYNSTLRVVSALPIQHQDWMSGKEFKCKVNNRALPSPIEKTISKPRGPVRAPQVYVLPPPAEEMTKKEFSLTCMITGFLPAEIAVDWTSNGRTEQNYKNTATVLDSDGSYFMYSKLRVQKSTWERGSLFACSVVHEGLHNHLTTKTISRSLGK

T3: Cynomolgus monkey cKIT D1-5 (cynomolgus monkey, UniProt P10721 26-524 (human entry))
T3 construct: also called cyno cKIT ECD
T3 chain: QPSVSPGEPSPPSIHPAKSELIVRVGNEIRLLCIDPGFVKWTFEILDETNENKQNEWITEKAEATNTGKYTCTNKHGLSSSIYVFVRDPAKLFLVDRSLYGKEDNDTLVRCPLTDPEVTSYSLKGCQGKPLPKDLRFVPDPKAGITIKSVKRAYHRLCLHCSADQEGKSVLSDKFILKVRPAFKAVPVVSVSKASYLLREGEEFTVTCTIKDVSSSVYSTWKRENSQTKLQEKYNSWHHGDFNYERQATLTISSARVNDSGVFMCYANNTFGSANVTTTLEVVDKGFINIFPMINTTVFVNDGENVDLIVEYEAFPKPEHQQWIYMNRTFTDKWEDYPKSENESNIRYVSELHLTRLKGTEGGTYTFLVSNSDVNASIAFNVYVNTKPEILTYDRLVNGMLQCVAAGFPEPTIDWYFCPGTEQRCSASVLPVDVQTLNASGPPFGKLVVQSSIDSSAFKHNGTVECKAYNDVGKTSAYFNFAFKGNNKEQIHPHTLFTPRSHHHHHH

B1: Anti-cKIT Ab1 (antibody, human IgG1, kappa, V domains shown)
VH: QVQLVQSGAEVKKPGSSVKVSCKASGGTFSSYAISWVRQAPGQGLEWMGVIFPAEGAPGYAQKFQGRVTITADESTSTAYMELSSLRSEDTAVYYCARGGYISDFDVWGQGTLVTVSS
VL: DIQMTQSPSSLSASVGDRVTITCRASQSISNYLAWYQQKPGKAPKLLIYDASSLQSGVPSRFSGSGSGTDFTLTISSLQPEDFATYYCQQYYYESITFGQGTKVEIKR
notes: Full-length human IgG1, kappa light chain; also called IgG control for J1
B2: Anti-cKIT Ab2 (antibody, human IgG1, kappa, V domains shown)
VH: QVQLVQSGAEVKKPGSSVKVSCKASGGTFSSHALSWVRQAPGQGLEWMGGIIPSFGTADYAQKFQGRVTITADESTSTAYMELSSLRSEDTAVYYCARGLYDFDYWGQGTLVTVSS
VL: B1 VL with S28D, N31Q, Y32D, T85V, E94L, S95P, I96S
notes: Full-length human IgG1, kappa light chain; also called IgG control for J2
B3: Anti-cKIT Ab3 (antibody, human IgG1, kappa, V domains shown)
VH: B1 VH with V50T, F52G, A54F, A57Q, G59R
VL: B1 VL
notes: Full-length human IgG1, kappa light chain; also called IgG control for J3
B4: Anti-cKIT Ab4 (antibody, human IgG1, lambda, V domains shown)
VH: QVQLQQSGPGLVKPSQTLSLTCAISGDSVSTNSAAWNWIRQSPSRGLEWLGRIYYRSQWLNDYAVSVKSRITINPDTSKNQFSLQLNSVTPEDTAVYYCARQLTYPYTVYHKALDVWGQGTLVTVSS
VL: DIELTQPPSVSVSPGQTASITCSGDNLGDQYVSWYQQKPGQAPVLVIYDDTDRPSGIPERFSGSNSGNTATLTISGTQAEDEADYYCQSTDSKSVVFGGGTKLTVLG
notes: Full-length human IgG1, lambda light chain; also called IgG control for J4
B5: Anti-cKIT Ab5 (antibody, human IgG1, lambda, V domains shown)
VH: QVQLVQSGAEVKKPGESLKISCKGSGYSFTNYWIAWVRQMPGKGLEWMGIIYPSNSYTLYSPSFQGQVTISADKSISTAYLQWSSLKASDTAMYYCARVPPGGSISYPAFDHWGQGTLVTVSS
VL: DIELTQPPSVSVSPGQTASITCSGDNIGSIYASWYQQKPGQAPVLVIYRDNKRPSGIPERFSGSNSGNTATLTISGTQAEDEADYYCSVTDMEQHSVFGGGTKLTVLG
notes: Full-length human IgG1, lambda light chain

Tests used:
[1] = target: T1, Mouse cKIT ECD, C-terminal 6x His (Sino …); assay: cross reactivity, Table 6 (Example 4: Biacore SPR, antibody captured by anti-human Fc, cKIT ECD in solution)
[2] = target: T2, Rat cKIT D1-5, C-terminal mFc; assay: as above
[3] = target: T3, Cynomolgus monkey cKIT D1-5; assay: 'in SET' by the column head; Example 4 describes Biacore SPR (antibody captured by anti-human Fc, cKIT ECD in solution)
[4] = target: T4, Human cKIT D1-5 (extracellular domain) (human, UniProt P10721 26-524); assay: as above
T4 construct: also called human cKIT ECD; full-length cKIT ECD

[5] = target: T2, Rat cKIT D1-5, C-terminal mFc; assay: cross reactivity, Table 6 (Example 4: Biacore SPR, antibody captured, cKIT ECD in solution)

T4 sequence (P10721 other isoform, or with tags, fused parts or gaps): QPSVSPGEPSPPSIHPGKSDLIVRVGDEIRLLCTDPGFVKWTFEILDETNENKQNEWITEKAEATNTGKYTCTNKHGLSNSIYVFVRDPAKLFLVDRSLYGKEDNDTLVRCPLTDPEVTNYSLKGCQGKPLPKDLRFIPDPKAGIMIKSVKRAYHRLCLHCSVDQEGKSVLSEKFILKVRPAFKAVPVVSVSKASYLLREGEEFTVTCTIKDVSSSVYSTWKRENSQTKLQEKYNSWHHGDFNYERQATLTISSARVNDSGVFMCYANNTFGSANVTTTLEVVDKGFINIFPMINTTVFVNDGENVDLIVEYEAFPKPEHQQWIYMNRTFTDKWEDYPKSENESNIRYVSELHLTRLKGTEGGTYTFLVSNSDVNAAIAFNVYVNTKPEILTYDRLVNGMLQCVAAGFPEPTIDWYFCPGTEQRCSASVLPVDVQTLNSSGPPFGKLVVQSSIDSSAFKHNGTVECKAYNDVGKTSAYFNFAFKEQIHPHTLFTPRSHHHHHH

Binder	binding result [1]	binding result [2]	Kd [3]	Kd [4]	binding result [5]
B1	no binding	no binding	0.17 nM	0.094 nM	–
B2	no binding	no binding	0.01 nM	0.007 nM	–
B3	no binding	no binding	0.052 nM	–	–
B4	–	–	0.14 nM	2.4 nM	binds
B5	–	–	0.18 nM	0.11 nM	binds
